From paper PMC12990809

Assays:
Assay in all cases: pulldown
[1] = target: T1, RBM24 (Tetraodon nigroviridis) (UniProt H3DM38); details: 20 nM protein, 1.5 uM RNA pool; 20 mM HEPES pH 7.8, 70 mM KCl, 10 mM NaCl, 10% glycerol, 2 mM DTT, 0.1 ug/uL BSA; 30 min, 4 C
T1 sequence: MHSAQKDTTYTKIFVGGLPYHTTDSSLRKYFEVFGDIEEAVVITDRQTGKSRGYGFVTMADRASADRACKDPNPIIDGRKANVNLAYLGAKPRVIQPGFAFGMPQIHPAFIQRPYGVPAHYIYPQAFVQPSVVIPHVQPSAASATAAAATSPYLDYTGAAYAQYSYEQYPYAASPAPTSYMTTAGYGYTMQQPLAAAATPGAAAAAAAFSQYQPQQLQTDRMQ

[2] = target: T2, NCU04254 (Neurospora crassa) (UniProt Q7S7T0); details: 20 nM protein, 1.5 uM RNA pool; 20 mM HEPES pH 7.8, 70 mM KCl, 10 mM NaCl, 10% glycerol, 2 mM DTT, 0.1 ug/uL BSA; 30 min, 4 C
T2 sequence: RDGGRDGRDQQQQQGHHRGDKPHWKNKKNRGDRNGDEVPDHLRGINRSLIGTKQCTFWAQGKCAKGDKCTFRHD

[3] = target: T3, Tb927.7.2140 V21F (Trypanosoma brucei) (UniProt D6XKD1); details: 20 nM protein, 1.5 uM RNA pool; 20 mM HEPES pH 7.8, 70 mM KCl, 10 mM NaCl, 10% glycerol, 2 mM DTT, 0.1 ug/uL BSA; 30 min, 4 C
T3 sequence: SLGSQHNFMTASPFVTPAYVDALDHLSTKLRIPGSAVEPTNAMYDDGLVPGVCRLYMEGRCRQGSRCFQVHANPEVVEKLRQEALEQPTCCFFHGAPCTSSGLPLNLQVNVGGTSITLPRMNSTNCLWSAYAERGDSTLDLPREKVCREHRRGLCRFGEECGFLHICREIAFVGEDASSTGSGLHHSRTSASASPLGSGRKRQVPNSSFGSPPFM

[4] = target: T4, Tb927.6.4960 Q72H;T102A;A103T (Trypanosoma brucei) (UniProt Q586G8); details: 20 nM protein, 1.5 uM RNA pool; 20 mM HEPES pH 7.8, 70 mM KCl, 10 mM NaCl, 10% glycerol, 2 mM DTT, 0.1 ug/uL BSA; 30 min, 4 C
T4 sequence: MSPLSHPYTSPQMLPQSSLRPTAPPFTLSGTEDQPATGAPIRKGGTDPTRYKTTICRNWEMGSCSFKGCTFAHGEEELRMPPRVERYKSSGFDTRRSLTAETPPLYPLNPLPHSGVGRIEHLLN

[5] = target: T5, Tb927.5.810 S125L (Trypanosoma brucei) (UniProt Q57W26); details: 20 nM protein, 1.5 uM RNA pool; 20 mM HEPES pH 7.8, 70 mM KCl, 10 mM NaCl, 10% glycerol, 2 mM DTT, 0.1 ug/uL BSA; 30 min, 4 C
T5 sequence: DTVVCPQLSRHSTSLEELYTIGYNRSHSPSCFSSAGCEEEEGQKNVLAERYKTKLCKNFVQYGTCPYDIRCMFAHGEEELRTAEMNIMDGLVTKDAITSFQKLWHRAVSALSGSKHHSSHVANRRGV

[6] = target: u2af2b (Tetraodon nigroviridis) (UniProt H3CRP7); details: 20 nM protein, 1.5 uM RNA pool; 20 mM HEPES pH 7.8, 70 mM KCl, 10 mM NaCl, 10% glycerol, 2 mM DTT, 0.1 ug/uL BSA; 30 min, 4 C
[7] = target: T6, PK21303.1 (Cannabis sativa) (UniProt A0A803NH45); details: 20 nM protein, 1.5 uM RNA pool; 20 mM HEPES pH 7.8, 70 mM KCl, 10 mM NaCl, 10% glycerol, 2 mM DTT, 0.1 ug/uL BSA; 30 min, 4 C
T6 sequence: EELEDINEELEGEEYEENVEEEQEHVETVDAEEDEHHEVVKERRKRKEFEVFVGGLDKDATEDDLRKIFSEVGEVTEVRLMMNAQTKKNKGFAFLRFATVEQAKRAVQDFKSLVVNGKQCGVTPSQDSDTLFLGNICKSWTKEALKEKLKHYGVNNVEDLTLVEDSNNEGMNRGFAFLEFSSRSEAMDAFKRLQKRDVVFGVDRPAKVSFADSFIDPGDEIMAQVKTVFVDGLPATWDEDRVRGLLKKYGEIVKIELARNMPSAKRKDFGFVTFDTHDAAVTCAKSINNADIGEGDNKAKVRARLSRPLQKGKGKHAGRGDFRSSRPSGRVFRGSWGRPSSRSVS

[8] = target: T7, mex-5 (Caenorhabditis elegans) (UniProt Q9XUB2); details: 20 nM protein, 1.5 uM RNA pool; 20 mM HEPES pH 7.8, 70 mM KCl, 10 mM NaCl, 10% glycerol, 2 mM DTT, 0.1 ug/uL BSA; 30 min, 4 C (protocol of this paper; not …); cited from earlier work
T7 sequence: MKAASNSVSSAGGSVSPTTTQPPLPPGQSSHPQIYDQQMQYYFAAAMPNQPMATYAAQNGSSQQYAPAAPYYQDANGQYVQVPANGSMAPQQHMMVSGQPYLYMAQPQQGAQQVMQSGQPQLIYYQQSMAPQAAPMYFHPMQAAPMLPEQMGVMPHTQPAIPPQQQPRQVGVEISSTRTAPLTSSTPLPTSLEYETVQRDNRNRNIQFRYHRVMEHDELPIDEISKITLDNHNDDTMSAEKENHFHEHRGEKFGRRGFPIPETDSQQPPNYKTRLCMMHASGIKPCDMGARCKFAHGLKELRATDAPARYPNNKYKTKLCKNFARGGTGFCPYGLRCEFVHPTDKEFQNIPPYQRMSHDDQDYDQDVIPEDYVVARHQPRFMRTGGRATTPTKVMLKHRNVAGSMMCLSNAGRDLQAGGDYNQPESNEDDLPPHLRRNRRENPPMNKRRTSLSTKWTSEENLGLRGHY

[9] = target: ENSTNIG00000011257 (Tetraodon nigroviridis) (UniProt H3D110); details: 20 nM protein, 1.5 uM RNA pool; 20 mM HEPES pH 7.8, 70 mM KCl, 10 mM NaCl, 10% glycerol, 2 mM DTT, 0.1 ug/uL BSA; 30 min, 4 C
MBNL1 (Homo sapiens) = target: T8, MBNL1 (Homo sapiens) (UniProt Q9NR56); details: 20 nM protein, 1.5 uM RNA pool; 20 mM HEPES pH 7.8, 70 mM KCl, 10 mM NaCl, 10% glycerol, 2 mM DTT, 0.1 ug/uL BSA; 30 min, 4 C (protocol of this paper; not …); cited from earlier work
T8 sequence: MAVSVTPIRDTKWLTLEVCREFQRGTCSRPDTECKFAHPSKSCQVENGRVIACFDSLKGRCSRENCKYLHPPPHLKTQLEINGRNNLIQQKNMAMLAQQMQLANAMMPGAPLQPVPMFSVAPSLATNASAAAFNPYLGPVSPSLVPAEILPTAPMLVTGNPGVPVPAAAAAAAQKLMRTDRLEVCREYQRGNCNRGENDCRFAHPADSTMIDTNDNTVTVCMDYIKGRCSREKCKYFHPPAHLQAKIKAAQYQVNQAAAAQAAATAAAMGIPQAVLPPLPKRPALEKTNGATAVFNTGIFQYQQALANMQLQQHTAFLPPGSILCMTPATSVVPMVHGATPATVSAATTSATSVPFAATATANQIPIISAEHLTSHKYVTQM

[10] = target: T9, srsf3 (Xenopus tropicalis) (UniProt A0A8J0SH10); details: 20 nM protein, 1.5 uM RNA pool; 20 mM HEPES pH 7.8, 70 mM KCl, 10 mM NaCl, 10% glycerol, 2 mM DTT, 0.1 ug/uL BSA; 30 min, 4 C
T9 sequence: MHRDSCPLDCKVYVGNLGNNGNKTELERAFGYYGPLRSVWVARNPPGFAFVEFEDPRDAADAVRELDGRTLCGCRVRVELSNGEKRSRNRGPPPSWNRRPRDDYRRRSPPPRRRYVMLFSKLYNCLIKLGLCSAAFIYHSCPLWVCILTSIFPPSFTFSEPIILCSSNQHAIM

[11] = target: T10, CBG00421 (Caenorhabditis briggsae) (UniProt A8WN19); details: 20 nM protein, 1.5 uM RNA pool; 20 mM HEPES pH 7.8, 70 mM KCl, 10 mM NaCl, 10% glycerol, 2 mM DTT, 0.1 ug/uL BSA; 30 min, 4 C
T10 sequence: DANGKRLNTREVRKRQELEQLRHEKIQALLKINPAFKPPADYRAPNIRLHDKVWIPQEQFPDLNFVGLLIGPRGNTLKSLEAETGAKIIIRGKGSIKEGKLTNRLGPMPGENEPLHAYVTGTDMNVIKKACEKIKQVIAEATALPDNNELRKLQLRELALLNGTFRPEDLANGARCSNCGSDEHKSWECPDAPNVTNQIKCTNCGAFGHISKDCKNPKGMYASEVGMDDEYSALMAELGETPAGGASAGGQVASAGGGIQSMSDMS

Sequence of u2af2b (Tetraodon nigroviridis) (H3CRP7 entry or part of it): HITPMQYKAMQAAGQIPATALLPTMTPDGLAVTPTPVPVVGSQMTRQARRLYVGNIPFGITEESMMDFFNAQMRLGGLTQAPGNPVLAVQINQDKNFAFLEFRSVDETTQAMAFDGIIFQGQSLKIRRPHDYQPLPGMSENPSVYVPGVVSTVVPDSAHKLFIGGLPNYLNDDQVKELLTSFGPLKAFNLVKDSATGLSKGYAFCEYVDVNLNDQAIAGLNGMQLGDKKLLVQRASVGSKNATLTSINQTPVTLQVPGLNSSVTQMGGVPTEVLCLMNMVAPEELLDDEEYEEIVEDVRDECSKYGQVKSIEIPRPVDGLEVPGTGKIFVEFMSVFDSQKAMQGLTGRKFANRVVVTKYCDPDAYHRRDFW
Sequence of ENSTNIG00000011257 (Tetraodon nigroviridis) (H3D110 entry or part of it): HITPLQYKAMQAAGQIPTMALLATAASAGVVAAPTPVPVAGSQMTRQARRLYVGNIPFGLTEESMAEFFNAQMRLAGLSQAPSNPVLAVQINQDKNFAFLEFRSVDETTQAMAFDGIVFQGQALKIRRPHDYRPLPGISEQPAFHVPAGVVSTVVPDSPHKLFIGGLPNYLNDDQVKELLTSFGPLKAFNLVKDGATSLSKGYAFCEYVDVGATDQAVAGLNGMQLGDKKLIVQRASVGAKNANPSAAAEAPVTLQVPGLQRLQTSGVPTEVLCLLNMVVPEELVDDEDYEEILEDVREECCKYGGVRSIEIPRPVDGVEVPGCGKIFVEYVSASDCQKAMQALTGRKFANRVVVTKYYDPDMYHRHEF

## GAGUGUG [RNAcompete motif RNCMPT01677]
[1]
  binding signal (z-score (mean of top ten 7-mers)): 9.92

## GAAUGG [RNAcompete motif RNCMPT00835]
[2]
  binding signal (z-score (mean of top ten 7-mers)): 8.35

## AAAACG [RNAcompete motif RNCMPT00834]
[3]
  binding signal (z-score (mean of top ten 7-mers)): 26

## UAAUAA [RNAcompete motif RNCMPT00833]
[4]
  binding signal (z-score (mean of top ten 7-mers)): 13.9

## UAUUAUU [RNAcompete motif RNCMPT00837]
[5]
  binding signal (z-score (mean of top ten 7-mers)): 13

## UUUUUCC [RNAcompete motif RNCMPT01670]
[6]
  binding signal (z-score (mean of top ten 7-mers)): 10.4

## AGAAGGA [RNAcompete motif RNCMPT00831]
[7]
  binding signal (z-score (mean of top ten 7-mers)): 6.57

## UAAUA [RNAcompete motif RNCMPT00039]
[8]
  binding signal (z-score (mean of top ten 7-mers)): 18

## UUUUUU [RNAcompete motif RNCMPT01671]
[9]
  binding signal (z-score (mean of top ten 7-mers)): 12.3

## GCUUGC [RNAcompete motif RNCMPT00038]
MBNL1 (Homo sapiens)
  binding signal (z-score (mean of top ten 7-mers)): 11.2

## AACAAC [RNAcompete motif RNCMPT01680]
[10]
  binding signal (z-score (mean of top ten 7-mers)): 9.74

## GANUAAU [RNAcompete motif RNCMPT00840]
[11]
  binding signal (z-score (mean of top ten 7-mers)): 14.5
